Laboratory results published in publication PMC4300955.

Molecular target: 53BP1 (UniProt Q12888)
Assay: co-immunoprecipitation, Western blot
Conditions: reference: wild type MOF, 3-6 h after 10 Gy; sites T392

## MOF (hMOF) (from UniProt Q9H7Z6) MOF-T392A, 3-6 h after 10 Gy
  binding against the reference: stronger
